According to the nanobody polyreactivity screen of Harvey et al. (2022):

Assay: yeast display, Sf9 membrane polyspecificity reagent, FACS + sequencing; frameworks hold sequencing errors
How it was run: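 Nanobodies came from a synthetic yeast display library in Saccharomyces cerevisiae BJ5465, induced with galactose for 36–48 hours and stained for 1 hour at 4 °C with 10% biotinylated, detergent-solubilized Sf9 membrane reagent. Cells were enriched on streptavidin microbeads and then FACS-sorted, with low and high (top ~1%) gates set on anti-HA fluorescence for expression and streptavidin fluorescence for reagent binding. Each polyreactivity label reflects the gate a clone came from. Genes were amplified by colony PCR, sequenced by MiSeq 2 × 250 and filtered by CDR length.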

| Sequence | polyreactivity (PSR sort gate) |
| --- | --- |
| QVQLVESGGGLVQAGGSLRLICAASGRIFYNNAMGWYRQARGKERELVAGISRSSGRTYYADSVTGRFTISRDNAKNTGYLQMNSLKPVDTAVYYCAADWHYRSTARRMGYWGQGTQVTVSS | high polyreactivity |
| QVQLVESGGGLVQAGGSLRLICAASGRIFYYYTMGWYRQAPGKERELVDTIRSGGSTYYADSVKGRFTISRDNAKNTVYLQMNSLKPEDTAVYYCAAAYRTGRGYGFDYWGQGTQVTVSS | high polyreactivity |
| QVQLVESGGGLVQAGGSLRLICAASGRISKRYTMGWYRQAPGKERELVAAINSSTSKSYADSVKGRFTISRDNAKNTVYLQMNSLKPEDTAVYYCNARYNYSYDYNYWGQGTQVTVSS | low polyreactivity |
| QVQLVESGGGLVQAGGSLRLICAASGRPSVLMLMGLYRQEPGKERELVAAIDDSTDTTYYADSVKGRFTISRDNAKNTVYLQMNSLKPDVTAGYYCADEEGYVKFSGSWSYGYDYWGQGTQVTVSS | high polyreactivity |
| QVQLVESGGGLVQAGGSLRLICAASGRSFIGNAMGWYSQAPGKDREFDAAISRRGGSTYYADSVKGRFTISRDNEKNTVYLQMNSLKPEDTAVYYCAAGQTTTGILTYYYWGQGTQVTGSS | high polyreactivity |
| QVQLVESGGGLVQAGGSLRLICAASGRSFQYYVMGWYSQAPGKEWELVAAMNRRGTSTYYADSVKGRFTISRDNAKNTVYLQMNSLKPEDTAVYYCAAVDRDYARTTTYDYWGQGTQVSVSS | high polyreactivity |
| QVQLVESGGGLVQAGGSLRLICAASGRSFTSNAMGWYRQAAGKEWELVAAINFRGDSTYYADSVKGRFTISRDNAKNTVYLQMNSLKREDTAVYYCAAVGGRSSYRLDYWGQGTQVTVSS | low polyreactivity |
| QVQLVESGGGLVQAGGSLRLICAASGRTCWKYVMGWYRQAPGKERDLVAVISSDGITNYADSVKGRFTISRDNAKNTVYLQMNSLKPEDTAVYYCNAGPDDYVGYWGKYDYWGQGTQVTVSS | low polyreactivity |
| QVQLVESGGGLVQAGGSLRLICAASGRTFAIYAMGWYRQAPGKEREIVAAISWSGGDTYYADSVKGRFTISRDNEKNTVYLQMNSLKPEDTAVYYCAADRYDYSYFGYGAQDYDYWGQGTQLTVSS | low polyreactivity |
| QVQLVESGGGLVQAGGSLRLICAASGRTFAYYAMGWYRQAPGKERELVATITWNGGSTYYADSVKGRFTISRDNAKNTVYLQMNSLKPEDTAVYYCAKSVGWWSPPLGDYWGQGTQVTVSS | low polyreactivity |
| QVQLVESGGGLVQAGGSLRLICAASGRTFDNYAMGWYRQAPGKEREFVAAITTGVGSTYADSVKGRFTISRDNAKNTVYLQMNSLKPEDTAVYYCAGDSYWLFDAYDYWGQGTKVTVSS | low polyreactivity |
| QVQLVESGGGLVQAGGSLRLICAASGRTFGGNAMGWYRQAPGKEWDLVAAISYSDGSKYYADSVKGRFTISRDNANNSVYLQMNSLKPEDTAVYYCAAARHVRTDYLDYDYWGQGTQVTVSS | low polyreactivity |
| QVQLVESGGGLVQAGGSLRLICAASGRTFGRYAMGWYRQAPGKERELVADIDYGGGSTYYADSEKGRFTISRDNAKNTVYLQMNSLKPEDTAVYYCNARRDIGWGYHMDYWGQGTQVTVSS | high polyreactivity |
| QVQLVESGGGLVQAGGSLRLICAASGRTFGSNAMGWYTQAPGKERELVAAIRERGGSTYADSVKGRFTISRDNAKNTVYLQMNCLKQEDTAVYYCNAVYVRSSLYYTGWSTFYYWGQGTQVTVSS | low polyreactivity |
| QVQLVESGGGLVQAGGSLRLICAASGRTFNPYAMGWYRQAPGKERELVAAISSGGNTNYADSVKGRFTISRDNAKNSVYLQMNSLKPEDTAVYYCATGLRWYHQLTGGYWGQGTQVTVSS | high polyreactivity |
| QVQLVESGGGLVQAGGSLRLICAASGRTFRDYAMGWYRQAPGKEWELVAVISRRGSSTYYADSVKGRFTISRDNAKNTVYLQMNSLKPEDTAVYYCARVPTTWRYAYGYWGQGTQVTVSS | high polyreactivity |

| Sequence | polyreactivity (PSR sort gate) |
| --- | --- |
| QVQLVESGGGLVQAGGSLRLICAASGRTFRGYAMGWYRQAPGNERELVAAITKSGGSTYYADSVKGRFTISRDNEKNTVYFQMNSLKPEDTAVYYCAKLRSSRDYDYWGQGTQVTVSS | high polyreactivity |
| QVQLVESGGGLVQAGGSLRLICAASGRTFRLYAMGWYRQAPGKERELVAAITRGGRTNYADSVKGRFTISRDNAKNTVYLQMNSLKPEDTAVYYCAARYVERHTDYYYWGQGTQVTVSS | low polyreactivity |
| QVQLVESGGGLVQAGGSLRLICAASGRTFRSNDMGWYRQAPGKERELVAANSLGTGTTYYADSVKGRFTISRDNAKNTVYLQMNSLKPEDTAVYYCHTDYRPIDTEYTSGYDYWGQGTQVTVSS | low polyreactivity |
| QVQLVESGGGLVQAGGSLRLICAASGRTFRYYAMGWYRQAPGKERELVAAITTGSSTYYADSVKGRFTISRDNAKNTVYLQMNSLKPEDTAVYYCNVFQGTRYGYWGQGTQVTVSS | low polyreactivity |
| QVQLVESGGGLVQAGGSLRLICAASGRTFSSYAMGWYRQAPGKERELVAALSRRGGSTYYADSVKGRFTISRDNAKNTVYLQMNSLNPEDTAVYYCAADVYKQYGYYYWGQGTQVTVSS | high polyreactivity |
| QVQLVESGGGLVQAGGSLRLICAASGRTFSVYAMGWYRQAPGKERELVAAISWNGGNTYYADSVKGRFTISRDNAKNTVYLQMNSLKPEDTAVYYCAAERFLARRYYYWGQGTQVTVSS | low polyreactivity |
| QVQLVESGGGLVQAGGSLRLICAASGRTFVPYAMGWYRQAPGKERELVAAISQSGGRTYYTDSVKGRFTISRDNAKNTVYLQMNSLKPEDTAVYYCAKRYIYRYVWGGGDYWGQGTQVTVSS | high polyreactivity |
| QVQLVESGGGLVQAGGSLRLICAASGRTFYRYAMGWYRQAPGKDRELVATISRSGGSTYYADSVKGRFTISRDNAKNTVYLQINSLKPEDTAVYYCAADIPSYYWWRAYDYWGQGTQVTVSS | low polyreactivity |
| QVQLVESGGGLVQAGGSLRLICAASGRTFYRYAMGWYRQAPGKERELVAAISRSGTTYYADSVKGRFTISRDNAKNTVYLQMNSLKPEDTAVYYCAAKPAGRQRGGDYWGQGTQVTVSS | high polyreactivity |
| QVQLVESGGGLVQAGGSLRLICAASGRTLGGNAMGWYRQAPGKERELVAAITNSASTYADSVKGRFTISRDNAKNTVYLQMNSLKPEDTAVYYCNAPDPSDQHGDYWGQGTQVTVSS | low polyreactivity |
| QVQLVESGGGLVQAGGSLRLICAASGRTLRRYAMGWYRQAPGKERELVAAISRSGSSTYADSVKGRFTISRDNAKNTVYLQMHSLKPEDTAVYYCNAYQPRYGYWGQGTQVTVSS | high polyreactivity |
| QVQLVESGGGLVQAGGSLRLICAASGRTYLWYTMGWYRQAPGKEREFVAAIWSGDSTYYADSVKGRFTISRDNAKNTVYLQMNSLKPEDTAVYYCAARRFRGSYYWGQGTQVTVSS | high polyreactivity |
| QVQLVESGGGLVQAGGSLRLICAASGSIFDSYTMGWYRQAPGKERELVAAISKNGGSTYYADSVKGRFTISRDNAKNTVYFQMNSLKPEDTAFYYCARSRSGYRYDYWGQGTQVTVSS | high polyreactivity |
| QVQLVESGGGLVQAGGSLRLICAASGSIFGYNAMGWYRQAPGKERELVAVINASGASTYYADSVKGRFTISRDNAKNTVYLQMNSLKPEDTAVYYCAKDPFPFPGGDYWGHGTQVTVSS | low polyreactivity |
| QVQLVESGGGLVQAGGSLRLICAASGSIFIHNAMGWYRPAPGKERELVAGITTGGSTYYADSVKGRFTISRDNAKNTVYLQMNSLKPEDTAVYYCAVKRPVALTRGNWVTEARDYWGQGTQVTVSS | low polyreactivity |
| QVQLVESGGGLVQAGGSLRLICAASGSIFITYDMGWYRQAPGKERELVATISTTGGTTYYADSVKGRFTISRDNAKNTVYLQMNSLKPEDTAVYYCATAGPPRGYYAPITLDDYWGQGTQVTVSS | low polyreactivity |
